Here are results for one substance from US20190358302A1.

In this assay the target is cation independent mannose-6-phosphate receptor (CIMPR). In words: immobilized CIMPR affinity column, elution with free M6P.

Regarding “Fabrazyme (agalsidase beta) (from UniProt P06280 32-429) (enzyme)”, the % bound to CIMPR column came out at 90%.
